# Measurements published in patent publication CN118638216A (CHENZHOU NO 1 PEOPLES HOSPITAL, dated 2024).
# B1: 全人源广谱抗sarbecovirus和/或新冠突变株的抗体(VSCM8-83) (antibody, V domains shown)
# VH: EVQLVEFGGGLVQPGGSLRLSCAASGFAVSSNYMSWVRQAPGKGLEWVSVIYGDGTTYYGDSVKGRFTISRHNSKNTLYLQMNSLRTEDTAVYYCARIVSEAFDLWGQGTMVTVSS
# VL: DIQMTQSPSTLSASVGDRVTITCRASQSIGRWLAWYQQKPGKAPKLLIYMASILESGVPSRFSGSGSATEFTLTISSLQPDDFATYYCQQYNGYSQYTFGQGTKLEIKR
# What was measured:
# [1] = biological target: SARS-CoV-2 Gamma突变株S蛋白 (假病毒, Genebank:MZ427312.1) (SARS-CoV-2 Gamma突变株); test: cell-based or functional assay
# SARS-CoV-2 S2蛋白(Sino …) = biological target: T1, SARS-CoV-2 S2蛋白(Sino Biological，货号:40590-V08B) (SARS-CoV-2, UniProt P0DTC2 686-1213); test: ELISA, S2 protein coated at 2 μg/mL, antibody at 1 μg/mL, anti-human IgG-HRP
# T1 construct: domain: S2
# SARS-CoV-2 S1蛋白(Sino …) = biological target: T2, SARS-CoV-2 S1蛋白(Sino Biological，货号:40591-V08H) (SARS-CoV-2, UniProt P0DTC2 16-685); test: ELISA, S1 protein coated at 2 μg/mL, antibody at 1 μg/mL
# T2 construct: domain: S1
# SARS-CoV S1蛋白(Sino …) = biological target: SARS-CoV S1蛋白(Sino Biological，货号:40150-V08B1) (SARS-CoV, UniProt P59594 14-667); test: ELISA, S1 protein coated at 2 μg/mL, antibody titrated from 10 μg/mL
# [2] = biological target: T3, SARS-CoV-2 Wuhan-Hu-1 S蛋白(Sino Biological，货号:40589-V08B1) (SARS-CoV-2 Wuhan-Hu-1, UniProt P0DTC2 14-1213); test: ELISA screen, S protein coated at 2 μg/mL, antibody at 1 μg/mL
# T3 construct: extracellular domain
binder,measurement,setting,value
B1,假病毒中和 IC50,[1],0.0207 µg/mL
same,binding result,SARS-CoV-2 S2蛋白(Sino …),no binding (tested: 1μg/mL)
same,binding result,SARS-CoV-2 S1蛋白(Sino …),binds
same,binding result,SARS-CoV S1蛋白(Sino …),binds
same,binding result,[2],binds
